The text below walks through data of US20230242671A1 (Eli Lilly, published 2023).

Test [1] has as its target T1, CaptureSelect Kappa XL ligand.
T1 construct: also called Biotin-KappaXL; Kappa XL column
The test is described as follows: CaptureSelect Kappa XL affinity column after Protein A. From the text:
Multispecific binding proteins of the present disclosure, in clarified medium or recovered from Protein A purification, may be subjected to a second purification step using a CaptureSelect™ Kappa XL (Thermo Fisher Cat. #494321001) pre-packed affinity column. Briefly, multispecific binding proteins of the present disclosure recovered from Protein A purification are subjected to a Kappa XL affinity column which has been equilibrated with a compatible buffer, such as phosphate buffered saline (PBS) at pH 7.4. The column is then washed to remove nonspecific binding components. The bound multispecific binding protein is eluted, for example, by pH gradient (such as 20 mM Tris buffer pH 7.0 to 10 mM sodium citrate buffer pH 3.0). Binding protein fractions are detected, such as by UV absorbance or SDS-PAGE, and then are pooled.
Percent flow through (% F T) and percent elution of exemplified heteromabs of the present disclosure following kappa XL column purification essentially as described herein is assessed. Briefly, various antibody formats (as set forth in Table 3) are subjected to Kappa XL column. Flow through material is considered to comprise of impurities, such as homodimers, or misassembled antibodies, whereas the Kappa XL ligand bound material (elution material) is considered to be the correctly assembled bispecific antibody.

Test [2] has the same target. The test is described as follows: ELISA, antibody titrated on goat anti-human-IgG, Biotin-KappaXL at 1 ug/ml. How it is done: Binding of the light chain Fab region formats of Table 1a for exemplified IgG hetermabs to Kappa XL ligand may be assessed via ELISA. Briefly, 96-well flat bottom ELISA plates are coated with 2 ug/mL goat anti-human-IgG protein at 100 ul/well and incubated overnight at 4° C. The following day, plates are washed 3× with wash buffer (0.05% PBS-Tween 20) and blocked for 1 hr with blocking buffer (casein, 200 μL/well) at room temperature (RT). Plates are washed 3× with wash buffer, and binding proteins (as shown in Table 5) are added at 10 μg/mL and serially diluted at 1:3 at 100 uL/well in DPBS (Dulbecco's HyClone). Plates are incubated at RT for 1 hr, are washed 3× with wash buffer and Biotin-KappaXL is added at 1 ug/ml at 100 uL/well. Plates are then incubated for 1 hr at RT, washed 3×, and 100 uL/well of SA-AP is added to each well and incubated 30 min at RT. Plates are then washed 3×, and 100 uL/well PNAP substrate is added. Reactions are stopped and the optical density is measured using a colorimetric microplate reader set to 405 nm.

The target of a further test is T2, Protein A (UniProt P38507 37-327, biotin (site not stated)).
T2 construct: Reagent; also called Biotin-Protein A; Protein A ligand
The test is described as follows: ELISA, antibody titrated on goat anti-human-kappa, Biotin-Protein A at 0.5 ug/ml. Here is the method:
Binding of the heavy chain Fc region formats of Table 1b for exemplified IgG heteromabs to Protein A ligand may be assessed via ELISA. Briefly, 96-well flat bottom Elisa plates are coated with 2 ug/mL goat anti-human-kappa protein at 100 ul/well and incubated overnight at 4° C. The following day, plates are washed 3× with wash buffer 0.05% PBS-Tween 20 (PBS-T)) and blocked for 1 hr with blocking buffer (casein, 200 µL/well) at room temperature (RT). Plates are washed 3× with wash buffer, and binding proteins (as shown in Table 4) are added to individual wells at 10 μg/mL and serially diluted 1:3, at a volume of 100 uL/well in PBS-T. Plates are incubated at RT for 1 hr, and washed 3× with wash buffer. Biotin-Protein A at 0.5 ug/ml is added at 100 uL/well and plates are incubated for 1 hr at RT, washed 3×, and 100 uL/well of streptavidin labeled alkaline phosphatase (SA-AP) is added to each well. Plates are incubated 30 min at RT. Plates are then washed 3×, and 100 uL/well of p-Nitrophenyl Phosphate, Disodium Salt (PNAP)(Thermo Fisher Scientific) substrate is added. Reactions are stopped and optical density is measured using a colorimetric microplate reader set to 405 nm.
A general note: ELISA stands for enzyme-linked immunosorbent assay.

The EC50 is the concentration giving half of the maximal effect.

B1: cMet-BAH10 parental IgG1 heteromab (bispecific antibody)
heavy 1: EVQLVESGGGLVQPGGSLRLSCAASGYTFTSYWLHWVRKAPGKGLEWVGMIDPSNSDTRFNPEFKDRFTISADTSKNTAYLQMNSLRAEDTAVYYCATYRSYVTPLDYWGQGTLVTVSSASTKGPSVFPLAPSSKSTSGGTAALGCLVKDYFPEPVTVSWNSGALTSGVATGPAVLQSSGLYSLSSVVTVPSSSLGTQTYICNVNHKPSNTKVDKKVEPKSCDKTHTCPPCPAPEAAGGPSVFLFPPKPKDTLMISRTPEVTCVVVDVSHEDPEVKFNWYVDGVEVHNAKTKPREEQYNSTYRVVSVLTVLHQDWLNGKEYKCKVSNKALPAPIEKTISKAKGQPREPQVYTLPPSREEMTDNQVSLTCLVKGFYPSDIAVEWESNGQPENNYKTTPPVLMSDGSFFLASKLTVDKSRWQQGNVFSCSVMHEALHNHYTQKSLSLSPGK
light 1: RIQMTQSPSSLSASVGDRVTITCKSSQSLLYTSSQKNYLAWYQDKPGKAPKLLIYWASTRESGVPSRFSGSGSGTDFTLTISSLQPEDFATYYCQQYYAYPWTFGQGTKVEIKRTVAAPSVFIFPPSDEQLKSGTASVVCYLNNFYPREAKVQWKVDNALQSGNSQESVTEQDSKDSTYSLWSTLTLSKADYEKHKVYACEVTHQGLSSPVTKSFNRGEC
heavy 2: QVQLVQSGAEVKKPGSSVKVSCKASGYTFTTYYLHWVRYAPGQGLEWMGWIYPGNVHAQYNEKFKGRVTITADKSTSTAYMELSSLRSEDTAVYYCARSWEGFPYWGRGTTVTVSSASTKGPSVFPLAPCSKSTSGGTAALGCLVKDYFPEPVTVSWNSGALTSGVHTFPAVLQSSGLYSLSSVVTVPSSSLGTQTYICNVNHKPSNTKVDKKVEPDSGDKTHTCPPCPAPEAAGGPSVFLFPPKPKDTLMISRTPEVTCVVVDVSHEDPEVKFNWYVDGVEVHNAKTKPREEQYNSTYRVVSVLTVLHQDWLNGKEYKCKVSNKALPAPIEKTISKAKGQPRRPRVYTLPPSREEMTKNQVSLVCLVKGFYPSDIAVEWESNGQPENNYKTTPPVLDSDGSFFLYSVLTVDKSRWQQGNVFSCSVMHEALHNHYTQKSLSLSPGK
light 2: DIQMTQSPSSLSASVGDRVTITCKASQNVGINVAWYQRKPGDAPKSLISSASYRYSGVPSRFSGSGSGTDFTLTISSLQPEDFATYFCQQYDTYPFTFGQGTKVEIKRTVAAPSVFIFPPSKEQLKSGTASVVCLLNNFYPREAKVQWKVDNALQSGNSQESVTEQDSKDSTYSLSSTLTLSKADYEKHKVYACEVTHQGLSSPVTKSFNRGEC
notes: control; also called cMet-BAH10 IgG1 heteromab; cMet-BAH10 IgG heteromab
For the molecule B1, in test [1], the “% Elution” value turned out to be 94.5% and the “% Flow Through (FT)” value was determined as 5.5%. The EC50 in test [2] was 0.57 nM. This molecule also returned a concentration giving a half-maximal response (EC50) with Protein A of 0.48 nM.
